Measurements: article PMC12111831, “Phase-Separated Multienzyme Condensates for Efficient Synthesis of Imines from Carboxylic Acids with Enhanced Dual-Cofactor Recycling” (International Journal of Molecular Sciences, 2025)

What was measured:
[1] = target: T1, AspRedAm (Aspergillus oryzae, UniProt Q2TW47); test: NADPH absorbance at […] nm, specific activity; assay type: biochemical; details: 10 mM aldehyde, 20 mM amine, 0.2 mM NADPH, MOPS pH 7.5, 30 °C
T1 sequence (Q2TW47 1-295): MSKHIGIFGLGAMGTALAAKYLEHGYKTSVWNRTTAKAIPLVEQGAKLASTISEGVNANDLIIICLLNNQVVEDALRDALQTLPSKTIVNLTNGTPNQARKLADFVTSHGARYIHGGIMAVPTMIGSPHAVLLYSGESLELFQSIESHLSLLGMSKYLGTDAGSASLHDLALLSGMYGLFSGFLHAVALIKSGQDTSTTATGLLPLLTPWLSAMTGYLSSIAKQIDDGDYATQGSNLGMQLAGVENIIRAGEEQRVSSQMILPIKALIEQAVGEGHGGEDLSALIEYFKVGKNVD

[2] = system: O=C(O)c1ccccc1; test: purified protein; details: ATP, NADPH, Mg2+, 30 °C
[3] = system: CCCC(=O)O; test: purified protein, by the assay type; details: pH 7.5; 30.0 °C
Protocol: (§1) Varying substrate concentrations were dissolved in 250 mM NaOH. Substrate-free controls were included for baseline correction. Kinetic parameters were derived via the nonlinear regression of Michaelis–Menten plots using OriginPro 2021 SR2 (64-bit) Build 9.8.0.240.

[4] = system: COc1ccc(C(=O)O)cc1; test: purified protein, by the assay type; details: pH 7.5; 30.0 °C
Protocol: as §1

[5] = system: Cc1ccc(C(=O)O)cc1; test: purified protein, by the assay type; details: pH 7.5; 30.0 °C
Protocol: as §1

[6] = system: O=C(O)CCc1ccccc1; test: purified protein, by the assay type; details: pH 7.5; 30.0 °C
Protocol: as §1

[7] = system: O=C(O)c1ccc2c(c1)OCO2; test: purified protein, by the assay type; details: pH 7.5; 30.0 °C
Protocol: as §1

Compound: NC1CC1 [cyclopropylamine]
- NADPH absorbance at 340 nm, specific activity ([1]; not with aldehyde 2h): both enzymes exhibited catalytic activity toward all tested substrates, except for substrate 2h with cyclopropylamine

Compound: NiCAR (Nocardia iowensis)
- Km [2]: 450 ± 30 µM
- kcat [2]: 3.9227 ± 0.0378 s⁻¹
- Km [3]: 101930 ± 21090 µM
- kcat [3]: 5.56 ± 1.05 s⁻¹
- Km [4]: 1580 ± 140 µM
- kcat [4]: 1.89 ± 0.0387 s⁻¹
- Km [5]: 1850 ± 160 µM
- kcat [5]: 3.17 ± 0.0792 s⁻¹
- Km [6]: 1040 ± 90 µM
- kcat [6]: 3.15 ± 0.0588 s⁻¹
- Km [7]: 4490 ± 620 µM
- kcat [7]: 1.58 ± 0.0875 s⁻¹

Compound: C#CCN [propargylamine]
- NADPH absorbance at 340 nm, specific activity [1]: both enzymes exhibited catalytic activity toward all tested substrates, except for substrate 2h with cyclopropylamine
